From patent US20250361282A1 (Bayer, published 2025)

B1: TPP-11154 (antibody, V domains shown)
VH: EVQLLESGGGLVQPGGSLRLSCAASGFTFSSYAMSWVRQAPGKGLEWVSAISGSGGSTYYADSVKGRFTISRDNSKNTLYLQMNSLRAEDTAVYYCTSVHQETKKYQSSPDGGSGGGSYSYTYNYEWHVDVWGQGTLVTVSS
VL: QSVLTQPPSVSGAPGQRVTISCTGSSSNIGAGYDVHWYQQLPGTAPKLLIYGNSNRPSGVPDRFSGSKSGTSASLAITGLQAEDEADYYCQSYDSSLSGVVFGGGTKLTVLG
B2: TPP-11155 (antibody, V domains shown)
VH: EVQLLESGGGLVQPGGSLRLSCAASGFTFSSYAMSWVRQAPGKGLEWVSAISGSGGSTYYADSVKGRFTISRDNSKNTLYLQMNSLRAEDTAVYYCTSVHQETKKYQSSPDGGSYSYTYNYEWHVDVWGQGTLVTVSS
VL: QSVLTQPPSVSGAPGQRVTISCTGSSSNIGAGYDVHWYQQLPGTAPKLLIYGNSNRPSGVPDRFSGSKSGTSASLAITGLQAEDEADYYCQSYDSSLSGVVFGGGTKLTVLG
B3: TPP-11153 (antibody, V domains shown)
VH: EVQLLESGGGLVQPGGSLRLSCAASGFTFSSYAMSWVRQAPGKGLEWVSAISGSGGSTYYADSVKGRFTISRDNSKNTLYLQMNSLRAEDTAVYYCTSVHQETKKYQSSPDGGSGGSGGGSYSYTYNYEWHVDVWGQGTLVTVSS
VL: QSVLTQPPSVSGAPGQRVTISCTGSSSNIGAGYDVHWYQQLPGTAPKLLIYGNSNRPSGVPDRFSGSKSGTSASLAITGLQAEDEADYYCQSYDSSLSGVVFGGGTKLTVLG
B4: TPP-9465 (antibody)
heavy: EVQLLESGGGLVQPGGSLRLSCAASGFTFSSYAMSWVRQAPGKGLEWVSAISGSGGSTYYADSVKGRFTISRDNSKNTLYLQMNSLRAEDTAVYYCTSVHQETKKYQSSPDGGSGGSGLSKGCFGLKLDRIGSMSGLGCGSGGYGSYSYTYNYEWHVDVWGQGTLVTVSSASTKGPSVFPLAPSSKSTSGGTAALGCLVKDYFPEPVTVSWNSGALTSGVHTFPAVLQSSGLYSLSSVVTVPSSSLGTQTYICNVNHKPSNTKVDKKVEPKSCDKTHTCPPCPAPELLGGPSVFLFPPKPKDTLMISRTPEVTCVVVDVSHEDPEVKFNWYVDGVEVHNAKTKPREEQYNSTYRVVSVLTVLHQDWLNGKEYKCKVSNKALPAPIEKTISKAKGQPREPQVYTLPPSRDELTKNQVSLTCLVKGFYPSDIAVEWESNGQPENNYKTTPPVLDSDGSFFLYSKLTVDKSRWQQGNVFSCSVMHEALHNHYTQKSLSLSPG
light: QSVLTQPPSVSGAPGQRVTISCTGSSSNIGAGYDVHWYQQLPGTAPKLLIYGNSNRPSGVPDRFSGSKSGTSASLAITGLQAEDEADYYCQSYDSSLSGVVFGGGTKLTVLGQPKAAPSVTLFPPSSEELQANKATLVCLISDFYPGAVTVAWKADSSPVKAGVETTTPSKQSNNKYAASSYLSLTPEQWKSHRSYSCQVTHEGSTVEKTVAPTECS
B5: TPP-9902 (antibody)
heavy: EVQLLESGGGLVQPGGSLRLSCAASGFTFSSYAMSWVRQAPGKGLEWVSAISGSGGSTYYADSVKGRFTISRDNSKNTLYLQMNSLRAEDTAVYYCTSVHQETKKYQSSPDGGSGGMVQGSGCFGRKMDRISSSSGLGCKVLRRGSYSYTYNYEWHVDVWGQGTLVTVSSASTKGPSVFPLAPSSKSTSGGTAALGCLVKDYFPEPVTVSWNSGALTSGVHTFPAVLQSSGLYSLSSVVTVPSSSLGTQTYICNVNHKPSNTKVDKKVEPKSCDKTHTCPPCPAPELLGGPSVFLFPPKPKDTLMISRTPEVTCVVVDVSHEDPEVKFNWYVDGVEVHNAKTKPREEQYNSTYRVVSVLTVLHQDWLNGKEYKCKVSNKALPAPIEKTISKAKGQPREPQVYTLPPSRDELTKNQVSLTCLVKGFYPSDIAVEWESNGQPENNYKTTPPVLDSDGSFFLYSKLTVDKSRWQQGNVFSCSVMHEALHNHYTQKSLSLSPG
light: QSVLTQPPSVSGAPGQRVTISCTGSSSNIGAGYDVHWYQQLPGTAPKLLIYGNSNRPSGVPDRFSGSKSGTSASLAITGLQAEDEADYYCQSYDSSLSGVVFGGGTKLTVLGQPKAAPSVTLFPPSSEELQANKATLVCLISDFYPGAVTVAWKADSSPVKAGVETTTPSKQSNNKYAASSYLSLTPEQWKSHRSYSCQVTHEGSTVEKTVAPTECS
B6: TPP-12897 (antibody)
heavy: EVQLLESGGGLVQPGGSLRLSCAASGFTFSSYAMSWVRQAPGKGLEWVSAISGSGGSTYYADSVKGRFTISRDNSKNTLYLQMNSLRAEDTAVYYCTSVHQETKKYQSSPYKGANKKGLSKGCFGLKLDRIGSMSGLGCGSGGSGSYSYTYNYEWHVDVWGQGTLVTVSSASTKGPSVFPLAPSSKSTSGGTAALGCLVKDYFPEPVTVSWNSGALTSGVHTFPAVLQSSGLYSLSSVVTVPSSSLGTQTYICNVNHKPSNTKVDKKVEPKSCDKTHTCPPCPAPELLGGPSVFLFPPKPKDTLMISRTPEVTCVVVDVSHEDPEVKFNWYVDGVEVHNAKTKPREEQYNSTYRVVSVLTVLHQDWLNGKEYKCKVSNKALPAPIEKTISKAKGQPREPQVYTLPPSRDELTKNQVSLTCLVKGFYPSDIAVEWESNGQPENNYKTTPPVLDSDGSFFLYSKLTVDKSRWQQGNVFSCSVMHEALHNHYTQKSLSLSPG
light: QSVLTQPPSVSGAPGQRVTISCTGSSSNIGAGYDVHWYQQLPGTAPKLLIYGNSNRPSGVPDRFSGSKSGTSASLAITGLQAEDEADYYCQSYDSSLDGVVFGGGTKLTVLGQPKAAPSVTLFPPSSEELQANKATLVCLISDFYPGAVTVAWKADSSPVKAGVETTTPSKQSNNKYAASSYLSLTPEQWKSHRSYSCQVTHEGSTVEKTVAPTECS
B7: TPP-12377 (antibody)
heavy: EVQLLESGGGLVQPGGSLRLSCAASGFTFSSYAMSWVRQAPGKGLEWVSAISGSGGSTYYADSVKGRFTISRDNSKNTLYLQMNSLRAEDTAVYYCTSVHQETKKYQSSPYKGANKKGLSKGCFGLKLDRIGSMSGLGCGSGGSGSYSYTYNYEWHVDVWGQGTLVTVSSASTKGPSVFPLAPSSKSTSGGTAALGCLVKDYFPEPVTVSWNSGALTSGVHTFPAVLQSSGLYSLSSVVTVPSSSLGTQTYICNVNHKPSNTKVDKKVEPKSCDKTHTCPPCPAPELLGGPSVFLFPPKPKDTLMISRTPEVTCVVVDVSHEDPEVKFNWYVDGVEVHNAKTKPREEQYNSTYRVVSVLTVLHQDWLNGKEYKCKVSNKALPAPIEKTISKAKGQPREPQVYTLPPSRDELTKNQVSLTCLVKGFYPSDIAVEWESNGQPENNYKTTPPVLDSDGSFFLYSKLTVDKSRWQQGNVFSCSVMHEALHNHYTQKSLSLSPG
light: QSVLTQPPSVSGAPGQRVTISCTGSSSNIGAGYDVHWYQQLPGTAPKLLIYGNSNRPSGVPDRFSGSKSGTSASLAITGLQAEDEADYYCQSYDSSLSGVVFGGGTKLTVLGQPKAAPSVTLFPPSSEELQANKATLVCLISDFYPGAVTVAWKADSSPVKAGVETTTPSKQSNNKYAASSYLSLTPEQWKSHRSYSCQVTHEGSTVEKTVAPTECS
B8: TPP-5661 (antibody)
heavy: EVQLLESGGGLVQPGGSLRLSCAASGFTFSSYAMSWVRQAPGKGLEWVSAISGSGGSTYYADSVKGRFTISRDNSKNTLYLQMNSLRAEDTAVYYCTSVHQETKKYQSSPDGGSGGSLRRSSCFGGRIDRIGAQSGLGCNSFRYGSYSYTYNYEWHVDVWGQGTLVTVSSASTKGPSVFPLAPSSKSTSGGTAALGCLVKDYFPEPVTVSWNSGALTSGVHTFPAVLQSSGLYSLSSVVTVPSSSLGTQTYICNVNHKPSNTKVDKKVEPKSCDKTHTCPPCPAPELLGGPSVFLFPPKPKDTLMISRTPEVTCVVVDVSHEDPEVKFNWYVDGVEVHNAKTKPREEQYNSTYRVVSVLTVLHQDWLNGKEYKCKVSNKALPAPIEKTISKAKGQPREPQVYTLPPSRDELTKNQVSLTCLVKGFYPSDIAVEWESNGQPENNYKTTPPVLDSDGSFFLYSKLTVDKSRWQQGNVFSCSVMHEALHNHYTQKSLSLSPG
light: QSVLTQPPSVSGAPGQRVTISCTGSSSNIGAGYDVHWYQQLPGTAPKLLIYGNSNRPSGVPDRFSGSKSGTSASLAITGLQAEDEADYYCQSYDSSLSGVVFGGGTKLTVLGQPKAAPSVTLFPPSSEELQANKATLVCLISDFYPGAVTVAWKADSSPVKAGVETTTPSKQSNNKYAASSYLSLTPEQWKSHRSYSCQVTHEGSTVEKTVAPTECS

Legend:
Test in all cases: cell-based or functional assay
rat NPR-A = molecular target: T1, rat NPR-A (rat, UniProt P18910 29-1057)
T1 sequence (looked up): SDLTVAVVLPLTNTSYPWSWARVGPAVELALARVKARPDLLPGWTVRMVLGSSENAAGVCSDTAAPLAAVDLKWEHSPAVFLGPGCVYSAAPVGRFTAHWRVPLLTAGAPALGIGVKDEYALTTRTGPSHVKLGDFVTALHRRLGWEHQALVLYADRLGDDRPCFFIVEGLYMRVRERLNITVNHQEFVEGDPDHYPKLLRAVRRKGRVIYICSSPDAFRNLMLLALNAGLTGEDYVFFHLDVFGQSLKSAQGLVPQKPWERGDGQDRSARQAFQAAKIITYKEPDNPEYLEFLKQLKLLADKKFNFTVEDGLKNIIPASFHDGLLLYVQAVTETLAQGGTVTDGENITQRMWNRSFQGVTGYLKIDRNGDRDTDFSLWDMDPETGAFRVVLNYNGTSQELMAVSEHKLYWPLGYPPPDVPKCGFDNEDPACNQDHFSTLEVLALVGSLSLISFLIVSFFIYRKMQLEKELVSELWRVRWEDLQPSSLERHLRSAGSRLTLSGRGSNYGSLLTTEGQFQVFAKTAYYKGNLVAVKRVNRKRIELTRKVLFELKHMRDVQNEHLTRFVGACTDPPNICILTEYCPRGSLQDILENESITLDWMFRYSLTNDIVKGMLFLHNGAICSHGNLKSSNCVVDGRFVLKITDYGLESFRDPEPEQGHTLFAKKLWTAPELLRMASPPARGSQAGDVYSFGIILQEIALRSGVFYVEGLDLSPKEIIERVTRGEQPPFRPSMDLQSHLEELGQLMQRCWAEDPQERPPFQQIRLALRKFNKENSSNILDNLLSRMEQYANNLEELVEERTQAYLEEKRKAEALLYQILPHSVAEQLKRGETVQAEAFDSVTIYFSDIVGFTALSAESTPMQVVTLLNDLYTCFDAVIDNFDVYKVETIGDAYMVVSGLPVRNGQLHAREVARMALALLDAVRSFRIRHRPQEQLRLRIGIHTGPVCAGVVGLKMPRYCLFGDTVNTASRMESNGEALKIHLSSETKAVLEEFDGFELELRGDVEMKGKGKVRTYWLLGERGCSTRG

rat NPR-B = molecular target: T2, rat NPR-B (rat, UniProt P16067 17-1047)
T2 sequence (looked up): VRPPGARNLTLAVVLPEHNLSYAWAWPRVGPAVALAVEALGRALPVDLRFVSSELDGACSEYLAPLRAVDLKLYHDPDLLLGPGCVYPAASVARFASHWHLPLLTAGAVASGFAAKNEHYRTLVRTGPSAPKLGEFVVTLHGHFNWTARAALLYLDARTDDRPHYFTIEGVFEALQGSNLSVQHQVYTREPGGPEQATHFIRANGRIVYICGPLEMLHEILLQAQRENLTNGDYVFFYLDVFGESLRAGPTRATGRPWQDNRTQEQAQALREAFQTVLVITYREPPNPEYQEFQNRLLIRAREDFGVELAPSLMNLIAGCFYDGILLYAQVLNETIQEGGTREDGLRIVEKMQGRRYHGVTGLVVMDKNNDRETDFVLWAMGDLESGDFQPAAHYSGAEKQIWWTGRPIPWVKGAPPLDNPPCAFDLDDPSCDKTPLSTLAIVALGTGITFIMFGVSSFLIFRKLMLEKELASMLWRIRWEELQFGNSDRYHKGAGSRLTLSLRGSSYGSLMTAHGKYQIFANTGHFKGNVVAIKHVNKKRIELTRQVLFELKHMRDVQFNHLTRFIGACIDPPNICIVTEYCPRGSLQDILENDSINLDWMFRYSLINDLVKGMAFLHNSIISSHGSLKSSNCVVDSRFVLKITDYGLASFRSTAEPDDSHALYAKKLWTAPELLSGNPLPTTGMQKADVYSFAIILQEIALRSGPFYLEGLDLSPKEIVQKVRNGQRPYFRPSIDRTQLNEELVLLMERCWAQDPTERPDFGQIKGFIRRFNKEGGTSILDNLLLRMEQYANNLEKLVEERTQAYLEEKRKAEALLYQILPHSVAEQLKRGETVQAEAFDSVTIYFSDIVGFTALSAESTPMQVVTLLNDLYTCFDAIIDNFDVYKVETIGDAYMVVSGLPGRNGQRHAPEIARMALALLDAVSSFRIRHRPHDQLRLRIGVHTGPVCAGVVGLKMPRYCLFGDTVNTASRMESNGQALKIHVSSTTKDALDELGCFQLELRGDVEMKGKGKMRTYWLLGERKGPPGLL

human NPRA (hNPRA) = molecular target: T3, human NPRA (hNPRA) (human, UniProt P16066 33-1061)
T3 sequence (looked up): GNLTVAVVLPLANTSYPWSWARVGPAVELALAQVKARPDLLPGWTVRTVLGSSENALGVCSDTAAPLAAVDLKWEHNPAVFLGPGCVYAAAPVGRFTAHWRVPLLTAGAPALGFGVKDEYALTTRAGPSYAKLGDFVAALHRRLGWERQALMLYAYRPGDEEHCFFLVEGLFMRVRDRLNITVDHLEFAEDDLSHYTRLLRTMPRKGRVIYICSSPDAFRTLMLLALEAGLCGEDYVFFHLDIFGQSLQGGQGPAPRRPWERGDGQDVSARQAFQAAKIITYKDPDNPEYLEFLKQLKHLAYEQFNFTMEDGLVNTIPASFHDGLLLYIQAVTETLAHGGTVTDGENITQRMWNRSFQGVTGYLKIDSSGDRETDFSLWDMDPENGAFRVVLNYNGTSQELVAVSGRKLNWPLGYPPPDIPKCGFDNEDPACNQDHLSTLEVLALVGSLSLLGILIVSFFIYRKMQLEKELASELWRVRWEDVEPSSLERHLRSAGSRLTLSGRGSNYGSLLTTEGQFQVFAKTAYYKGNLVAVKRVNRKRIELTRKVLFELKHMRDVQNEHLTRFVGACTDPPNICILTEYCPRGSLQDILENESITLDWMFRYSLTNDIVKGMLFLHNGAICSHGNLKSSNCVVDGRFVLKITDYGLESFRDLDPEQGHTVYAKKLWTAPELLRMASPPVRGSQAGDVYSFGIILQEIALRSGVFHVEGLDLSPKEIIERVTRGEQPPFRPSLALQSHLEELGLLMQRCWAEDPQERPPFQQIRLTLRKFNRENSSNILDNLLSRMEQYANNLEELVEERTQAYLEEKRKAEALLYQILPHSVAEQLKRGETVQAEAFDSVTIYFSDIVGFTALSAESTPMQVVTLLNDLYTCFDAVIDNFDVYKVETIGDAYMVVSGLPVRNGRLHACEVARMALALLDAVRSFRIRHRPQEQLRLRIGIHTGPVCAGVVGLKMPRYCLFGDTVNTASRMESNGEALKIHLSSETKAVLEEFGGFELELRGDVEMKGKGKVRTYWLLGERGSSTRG

Binder | EC50, fluorescence signal of rat NPR-A / CNGA2 (cGMP biosensor) / GCaMP6 CHO reporter cells (rat NPR-A) | EC50 on rNPRA reporter cells (rat NPR-A) | EC50, luminescence signal of rat NPR-B reporter cells (rat NPR-B) | other results
B1 | 7 nM | < 20 nM | – | –
B2 | 12 nM | < 20 nM | – | –
B3 | > 1900 nM | > 1000 nM | – | –
B4 | – | – | 5.2 nM | –
B5 | 2300 nM | > 1000 nM | – | –
B6 | – | – | 10 nM | –
B7 | – | – | 4.1 nM | –
B8 | 17 nM | – | – | logEC50, cGMP quantification assay (HTRF), stable hNPRA-CHO k1 cells, isolated compound sample (human NPRA (hNPRA)): -8.8; logEC50, cGMP quantification assay (HTRF), stable hNPRA-CHO k1 cells, purified compound sample, average of experiments (human NPRA (hNPRA)): -9.2; logEC50, cGMP quantification assay (HTRF), transient hNPRA-HEK293 cells, purified compound sample, average of three experiments (human NPRA (hNPRA)): -9
